Experimental findings from paper doi:10.1101/2025.06.28.662095, “Mechanistic insights into the allosteric regulation of cell wall hydrolase RipA in Mycobacterium tuberculosis” (bioRxiv, 2025) are described below.

The experiment addresses T1, MtRipACAT (catalytic domain of M. tuberculosis RipA, residues 261-472) (Mycobacterium tuberculosis, UniProt O53168 261-472).
T1 construct: also called MtRipA catalytic domain; NlpC/P60 catalytic domain; not shown: 6xHis-SUMO, N-terminal, cleaved
T1 sequence: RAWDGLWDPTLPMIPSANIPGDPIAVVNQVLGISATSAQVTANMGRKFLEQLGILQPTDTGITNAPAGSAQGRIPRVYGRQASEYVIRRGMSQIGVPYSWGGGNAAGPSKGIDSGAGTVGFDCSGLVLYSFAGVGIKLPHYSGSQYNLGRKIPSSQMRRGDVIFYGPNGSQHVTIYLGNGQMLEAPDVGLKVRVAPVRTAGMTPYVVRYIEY
Description: BLI; biotinylated MtRipACC immobilised on streptavidin biosensors; 25°C; 25 mM HEPES pH 7.5, 150 mM NaCl, 5% glycerol, BSA 1 mg/mL, 0.05% Tween 20; steady-state signal versus concentration, one-site binding model; apparent Kd. The settings on record: both partners purified.

B1: MtRipACC (coiled-coil domain of M. tuberculosis RipA, residues 40-240) (domain or fragment)
chain: DPQTDTIAALIADVAKANQRLQDLSDEVQAEQESVNKAMVDVETARDNAAAAEDDLEVSQRAVKDANAAIAAAQHRFDTFAAATYMNGPSVSYLSASSPDEIIATVTAAKTLSASSQAVMANLQRARTERVNTESAARLAKQKADKAAADAKASQDAAVAALTETRRKFDEQREEVQRLAAERDAAQARLQAARLVAWSSE
modifications: biotinylated with EZ-Link NHS-PEG4-Biotin (20 molar excess) for the BLI assays
notes: also called RipA coiled-coil (CC) domain; MtRipA CC domain; not shown: 6xHis-SUMO, N-terminal, cleaved
Take B1: the Kd came to 6.8 ± 1.4 µM.
